Publication PMC7192597, “Mechanistic insights from structure of Mycobacterium smegmatis topoisomerase I with ssDNA bound to both N- and C-terminal domains”

Experiments:
[1] = biological target: T1, MsmTOP1 full length (topoisomerase I) (Mycobacterium smegmatis mc2 155, UniProt A0R5D9 1-936); test: fluorescence anisotropy; no Mg2+, 0.1 mM EDTA; Anisotropy: 50 mM Tris-HCl pH 7.5, 100 mM NaCl, 0.1 mM EDTA, room temperature; crystal: 0.1 M Tris-HCl pH 8.5, 1.5 M lithium sulfate, 16 C, protein:ssDNA 1:2; settings: protein: recombinant; tags: His6-Mocr removed by TEV (N-terminal SNA left); label: 3' 6-carboxyfluorescein; single strand
T1 sequence: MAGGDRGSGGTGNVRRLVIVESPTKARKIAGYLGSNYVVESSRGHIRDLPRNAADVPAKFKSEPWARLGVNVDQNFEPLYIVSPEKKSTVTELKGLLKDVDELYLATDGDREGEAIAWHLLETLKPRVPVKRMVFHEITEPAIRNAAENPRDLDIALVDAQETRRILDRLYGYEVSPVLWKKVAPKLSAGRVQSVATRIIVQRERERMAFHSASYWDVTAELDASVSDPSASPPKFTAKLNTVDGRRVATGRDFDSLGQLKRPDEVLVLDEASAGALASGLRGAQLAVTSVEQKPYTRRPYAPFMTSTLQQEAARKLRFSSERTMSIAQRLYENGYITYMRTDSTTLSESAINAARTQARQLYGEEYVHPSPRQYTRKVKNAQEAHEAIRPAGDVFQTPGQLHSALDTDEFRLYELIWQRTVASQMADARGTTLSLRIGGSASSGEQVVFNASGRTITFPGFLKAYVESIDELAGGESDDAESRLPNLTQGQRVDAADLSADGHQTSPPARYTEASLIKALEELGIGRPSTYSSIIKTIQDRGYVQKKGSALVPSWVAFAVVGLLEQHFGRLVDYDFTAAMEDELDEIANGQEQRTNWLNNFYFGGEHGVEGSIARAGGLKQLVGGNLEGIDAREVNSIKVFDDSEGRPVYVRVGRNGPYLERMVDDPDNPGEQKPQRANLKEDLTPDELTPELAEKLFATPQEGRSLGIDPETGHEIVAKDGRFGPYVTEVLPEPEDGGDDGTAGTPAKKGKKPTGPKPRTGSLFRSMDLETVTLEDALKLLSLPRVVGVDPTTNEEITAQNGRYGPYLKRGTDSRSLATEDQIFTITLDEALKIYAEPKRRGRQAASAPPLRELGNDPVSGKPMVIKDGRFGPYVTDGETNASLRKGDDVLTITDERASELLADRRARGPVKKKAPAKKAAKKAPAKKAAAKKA

[2] = biological target: T2, MsmTOP1-701t (D1-D5) (Mycobacterium smegmatis mc2 155, UniProt A0R5D9 1-701); test: as above; settings: protein: recombinant; tags: His6-Mocr removed by TEV (N-terminal SNA left); label: 3' 6-carboxyfluorescein; single strand
T2 sequence: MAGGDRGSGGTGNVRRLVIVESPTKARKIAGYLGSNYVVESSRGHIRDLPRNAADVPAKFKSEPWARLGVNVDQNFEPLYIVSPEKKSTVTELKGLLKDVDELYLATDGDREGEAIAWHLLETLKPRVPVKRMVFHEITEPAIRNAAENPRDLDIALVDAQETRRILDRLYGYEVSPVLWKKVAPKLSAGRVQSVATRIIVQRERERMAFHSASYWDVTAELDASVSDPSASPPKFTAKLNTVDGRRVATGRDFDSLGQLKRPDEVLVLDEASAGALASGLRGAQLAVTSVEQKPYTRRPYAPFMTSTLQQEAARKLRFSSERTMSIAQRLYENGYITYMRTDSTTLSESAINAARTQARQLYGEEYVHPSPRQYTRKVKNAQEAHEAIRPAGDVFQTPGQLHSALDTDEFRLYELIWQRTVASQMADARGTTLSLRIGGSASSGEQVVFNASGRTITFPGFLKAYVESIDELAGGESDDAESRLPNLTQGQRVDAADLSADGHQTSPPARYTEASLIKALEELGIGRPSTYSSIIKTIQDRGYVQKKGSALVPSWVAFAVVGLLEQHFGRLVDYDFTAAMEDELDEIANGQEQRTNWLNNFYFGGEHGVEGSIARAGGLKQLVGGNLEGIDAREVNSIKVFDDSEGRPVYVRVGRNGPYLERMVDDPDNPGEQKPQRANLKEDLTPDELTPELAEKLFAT

[3] = biological target: T3, MsmTOP1-839t (D1-D7) (Mycobacterium smegmatis mc2 155, UniProt A0R5D9 1-839); test: X-ray crystallography (3.1 A); no metal ion at active site; ssDNA at both N-terminal and D6-D7 domains; Anisotropy: 50 mM Tris-HCl pH 7.5, 100 mM NaCl, 0.1 mM EDTA, room temperature; crystal: 0.1 M Tris-HCl pH 8.5, 1.5 M lithium sulfate, 16 C, protein:ssDNA 1:2; settings: protein: recombinant; tags: His6-Mocr removed by TEV (N-terminal SNA left); single strand; in crystal two copies pair through 5' regions (12 bp, six non-Watson-Crick pairs/mismatches)
T3 sequence: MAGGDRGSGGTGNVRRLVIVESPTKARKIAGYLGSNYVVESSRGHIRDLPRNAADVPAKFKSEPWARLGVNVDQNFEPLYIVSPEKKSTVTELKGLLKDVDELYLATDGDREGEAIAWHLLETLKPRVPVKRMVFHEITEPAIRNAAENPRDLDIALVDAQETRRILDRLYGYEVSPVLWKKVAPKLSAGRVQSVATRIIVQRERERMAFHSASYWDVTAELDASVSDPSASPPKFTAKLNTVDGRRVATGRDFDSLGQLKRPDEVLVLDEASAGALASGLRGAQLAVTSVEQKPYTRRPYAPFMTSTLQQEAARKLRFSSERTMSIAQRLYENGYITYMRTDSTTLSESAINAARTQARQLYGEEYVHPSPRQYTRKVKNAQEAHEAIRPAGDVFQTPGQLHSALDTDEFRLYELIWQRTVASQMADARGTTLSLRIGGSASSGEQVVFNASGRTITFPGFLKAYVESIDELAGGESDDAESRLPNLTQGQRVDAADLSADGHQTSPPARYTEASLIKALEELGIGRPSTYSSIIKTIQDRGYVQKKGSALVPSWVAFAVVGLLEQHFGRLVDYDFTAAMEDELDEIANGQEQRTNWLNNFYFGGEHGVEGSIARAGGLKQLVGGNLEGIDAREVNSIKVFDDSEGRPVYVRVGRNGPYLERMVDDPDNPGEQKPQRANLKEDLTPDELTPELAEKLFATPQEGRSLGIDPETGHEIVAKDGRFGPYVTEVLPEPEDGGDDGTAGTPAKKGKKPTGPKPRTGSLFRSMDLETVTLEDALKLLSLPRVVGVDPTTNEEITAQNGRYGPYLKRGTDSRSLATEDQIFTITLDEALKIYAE

[4] = biological target: T1, MsmTOP1 full length (topoisomerase I); test: fluorescence anisotropy; Kd could not be determined; no Mg2+, 0.1 mM EDTA; Anisotropy: 50 mM Tris-HCl pH 7.5, 100 mM NaCl, 0.1 mM EDTA, room temperature; crystal: 0.1 M Tris-HCl pH 8.5, 1.5 M lithium sulfate, 16 C, protein:ssDNA 1:2; settings: protein: recombinant; tags: His6-Mocr removed by TEV (N-terminal SNA left); label: 3' 6-carboxyfluorescein; single strand

Question: With CAGTGAGCGAGCTTCCGCTTGACATCCCAATA (ssDNA) [STS32] as the binder, how does the Kd [1] read?
Answer: 0.3 nM

Question: What about the Kd [2] of the same binder?
Answer: 14.9 nM

Question: Does CAGTGAGCGAGCTTCCGCTTGACTT (ssDNA) [MTS2-25] bind [3]?
Answer: binds

Question: Does CTTCCGCTTGACAT (ssDNA) [MTS3-14] bind [4]?
Answer: binds
